Reference: FireProtDB
Several values for one entry are separate records, joined by “and”; a condition that tells them apart may be missing. Identical values can stand only once.

Conditions: whole UniProt chain shown
[1] = Bacillus amyloliquefaciens, pH 5.8, Thermal, DSC, acetate 10 mM, reversible: yes
[2] = Bacillus amyloliquefaciens, pH 6.2, Thermal, DSC, PIPES 0.01 M, NaCl 0.05 M, reversible: yes(54%)
[3] = Bacillus amyloliquefaciens, pH 6.3, 25 °C, GdnSCN, CD, Sodium acetate 50 mM, reversible: yes
[4] = Bacillus amyloliquefaciens, pH 6.3, 25 °C, Thermal, Fluorescence, MES 50 mM, KCl, reversible: yes
[5] = Bacillus amyloliquefaciens, pH 6.3, 25 °C, Urea, CD, MES 50 mM, reversible: yes
[6] = Bacillus amyloliquefaciens, pH 6.3, 25 °C, Urea, Fluorescence, MES 19.3 mM, reversible: yes
[7] = Bacillus amyloliquefaciens, pH 6.3, 25 °C, Urea, Fluorescence, MES 50 mM, reversible: yes
[8] = Bacillus amyloliquefaciens, pH 6.3, Thermal, DSC, MES 50 mM, reversible: yes
[9] = Bacillus amyloliquefaciens, pH 8, 25 °C, Urea, CD, Tris-HCl 25 mM
[10] = Aspergillus oryzae (strain ATCC 42149 / RIB 40), pH 5.5, Thermal, Absorbance, MES 50 mM, reversible: yes
[11] = Aspergillus oryzae (strain ATCC 42149 / RIB 40), pH 5.5, Thermal, DSC, Potassium acetate 15 mM
[12] = Aspergillus oryzae (strain ATCC 42149 / RIB 40), pH 5.5, Thermal, DSC, Potassium acetate 50 mM, reversible: yes
[13] = Aspergillus oryzae (strain ATCC 42149 / RIB 40), pH 5.5, Thermal, DSC, acetate 30 mM
[14] = Aspergillus oryzae (strain ATCC 42149 / RIB 40), pH 5.5, Thermal, DSC, sodium acetate 10 mM, KCl 100 mM, reversible: yes
[15] = Aspergillus oryzae (strain ATCC 42149 / RIB 40), pH 6, Thermal, Absorbance, MES 0.05 M, reversible: no
[16] = Aspergillus oryzae (strain ATCC 42149 / RIB 40), pH 6, Thermal, CD, MES 10 mM, KCl 0.1 M
[17] = Aspergillus oryzae (strain ATCC 42149 / RIB 40), pH 6, Thermal, DSC, Sodium phosphate 50 mM, NaCl 200 mM, reversible: yes
[18] = Aspergillus oryzae (strain ATCC 42149 / RIB 40), pH 6.35, 25 °C, Urea, Absorbance, Glycinamide 0.1 M
[19] = Aspergillus oryzae (strain ATCC 42149 / RIB 40), pH 6.8, Thermal, DSC, phosphate 10 mM, reversible: no
[20] = Aspergillus oryzae (strain ATCC 42149 / RIB 40), pH 7, 20 °C, GdnHCl, CD, Mops 50 mM
[21] = Aspergillus oryzae (strain ATCC 42149 / RIB 40), pH 7, 20 °C, GdnHCl, Fluorescence, Mops 50 mM
[22] = Aspergillus oryzae (strain ATCC 42149 / RIB 40), pH 7, 20 °C, GdnHCl, SAXS, Mops 50 mM
[23] = Aspergillus oryzae (strain ATCC 42149 / RIB 40), pH 7, Thermal, Absorbance, phosphate 0.03 M
[24] = Aspergillus oryzae (strain ATCC 42149 / RIB 40), pH 7, Thermal, CD, MOPS 20 mM, reversible: Yes (>90%)
[25] = Aspergillus oryzae (strain ATCC 42149 / RIB 40), pH 7, Thermal, CD, Sodium cacodylate 50 mM, reversible: yes
[26] = Aspergillus oryzae (strain ATCC 42149 / RIB 40), pH 7, Thermal, DSC, MES 30 mM, reversible: yes
[27] = Aspergillus oryzae (strain ATCC 42149 / RIB 40), pH 7, Thermal, DSC, bis-Tris-HCl 50 mM, reversible: yes
[28] = Aspergillus oryzae (strain ATCC 42149 / RIB 40), pH 7, Thermal, Fluorescence, MOPS 30 mM, NaCl 0.1 M, reversible: yes
[29] = Aspergillus oryzae (strain ATCC 42149 / RIB 40), pH 7, Thermal, Fluorescence, MOPS 30 mM
[30] = Aspergillus oryzae (strain ATCC 42149 / RIB 40), pH 7.05, 25 °C, Urea, Absorbance, Glycinamide 0.1 M
[31] = Aspergillus oryzae (strain ATCC 42149 / RIB 40), pH 7.1, Thermal, Absorbance, None, reversible: Yes (>90%)
[32] = Aspergillus oryzae (strain ATCC 42149 / RIB 40), pH 7.1, Thermal, CD, None, reversible: Yes (>90%)
[33] = Aspergillus oryzae (strain ATCC 42149 / RIB 40), pH 7.4, Thermal, CD, PBS
[34] = Aspergillus oryzae (strain ATCC 42149 / RIB 40), pH 8, 25 °C, GdnHCl, CD, Sodium phosphate 50 mM, NaCl 25 mM, reversible: Yes

B1: Ribonuclease wild type, P00648 (protein)
chain: MMKMEGIALKKRLSWISVCLLVLVSAAGMLFSTAAKTETSSHKAHTEAQVINTFDGVADYLQTYHKLPDNYITKSEAQALGWVASKGNLADVAPGKSIGGDIFSNREGKLPGKSGRTWREADINYTSGFRNSDRILYSSDWLIYKTTDHYQTFTKIR
[1]
  Tm: 54.3 °C
  heat capacity change of unfolding: 1.37 kcal/mol/K
  unfolding enthalpy (calorimetric): 126 kcal/mol
  unfolding enthalpy (van 't Hoff): 124 kcal/mol
Bacillus amyloliquefaciens, pH 6, 25 °C, Thermal, CD, MES 50 mM, reversible: yes
  unfolding free energy: 10 kcal/mol
[2]
  Tm: 54.8 °C
  unfolding enthalpy (calorimetric): 128 kcal/mol
[3]
  denaturant m value: 14.3 kcal/mol/M
  denaturant midpoint (higher = more stable): 0.77 M
  unfolding free energy: 11 kcal/mol
Bacillus amyloliquefaciens, pH 6.3, 25 °C, Thermal, DSC, MES 50 mM, reversible: yes
  unfolding free energy: 8.52 kcal/mol
[4]
  heat capacity change of unfolding: 1.88 kcal/mol/K
  unfolding enthalpy (van 't Hoff): 84.5 kcal/mol
  unfolding free energy: 10.2 kcal/mol
Bacillus amyloliquefaciens, pH 6.3, 25 °C, Thermal, Fluorescence, MES 50 mM
  unfolding free energy: 10.2 kcal/mol
[5]
  denaturant m value: 2.02 kcal/mol/M
  denaturant midpoint (higher = more stable): 4.53 M
  unfolding free energy: 9.18 kcal/mol
[6]
  denaturant midpoint (higher = more stable): 2.27 M
  unfolding free energy: 10.5 kcal/mol
[7]
  denaturant m value: 1.92 kcal/mol/M
  denaturant midpoint (higher = more stable): 4.58 M
  unfolding free energy: 8.79 kcal/mol
Bacillus amyloliquefaciens, pH 6.3, 25 °C, Urea, Fluorescence, MES 1 M
  unfolding free energy: 8.9 kcal/mol
[8]
  Tm: 51.5 °C
  unfolding enthalpy (calorimetric): 127 kcal/mol
  unfolding enthalpy (van 't Hoff): 126 kcal/mol
[9]
  denaturant m value: 1.84 kcal/mol/M
  unfolding free energy: 7.58 kcal/mol

B2: Guanyl-specific ribonuclease T1 wild type, P00651 (protein)
chain: MMYSKLLTLTTLLLPTALALPSLVERACDYTCGSNCYSSSDVSTAQAAGYQLHEDGETVGSNSYPHKYNNYEGFDFSVSSPYYEWPILSSGDVYSGGSPGADRVVFNENNQLAGVITHTGASGNNFVECT
[10]
  Tm: 58 °C
  unfolding enthalpy (van 't Hoff): 103 kcal/mol
[11]
  Tm: 62 °C
  unfolding enthalpy (calorimetric): 109 kcal/mol
  unfolding enthalpy (van 't Hoff): 110 kcal/mol
[12]
  Tm: 60.9 °C
  heat capacity change of unfolding: 1 kcal/mol/K
  unfolding enthalpy (calorimetric): 99.1 kcal/mol
[13]
  Tm: 64 °C
  heat capacity change of unfolding: 1.24 kcal/mol/K
  unfolding enthalpy (calorimetric): 116 kcal/mol
[14]
  Tm: 60.7 °C
  unfolding enthalpy (calorimetric): 107 kcal/mol
Aspergillus oryzae (strain ATCC 42149 / RIB 40), pH 6, 25 °C, Thermal, CD, MES 10 mM, KCL 0.1 M
  unfolding free energy: 9.3 kcal/mol
[15]
  Tm: 51.9 °C
  unfolding enthalpy (van 't Hoff): 97.5 kcal/mol
Aspergillus oryzae (strain ATCC 42149 / RIB 40), pH 6, Thermal, Absorbance, Sodium acetate 30 mM, NaCl 0.10 M, reversible: yes
  Tm: 61.6 °C
[16]
  Tm: 59.6 °C
  unfolding enthalpy (van 't Hoff): 112 kcal/mol
[17]
  Tm: 63.7 °C
  heat capacity change of unfolding: 1.3 kcal/mol/K
  unfolding enthalpy (calorimetric): 114 kcal/mol
Aspergillus oryzae (strain ATCC 42149 / RIB 40), pH 6, Thermal, DSC, citrate 20 mM, NaCl 55 mM, reversible: yes
  Tm: 65 °C
Aspergillus oryzae (strain ATCC 42149 / RIB 40), pH 6, Thermal, DSC, phosphate, reversible: yes(>90%)
  Tm: 63.2 °C
[18]
  denaturant m value: 1.49 kcal/mol/M
  denaturant midpoint (higher = more stable): 7.16 M
Aspergillus oryzae (strain ATCC 42149 / RIB 40), pH 6.45, 26 °C, GdnHCl, CD, Sodium phosphate 10 mM, KCl 0.1 M, reversible: yes
  unfolding free energy: 14.4 kcal/mol
[19]
  Tm: 63.8 °C
  unfolding enthalpy (calorimetric): 114 kcal/mol
Aspergillus oryzae (strain ATCC 42149 / RIB 40), pH 7, 0 °C, Urea, Fluorescence, MOPS 30 mM, NaCl 0.1 M, reversible: yes
  unfolding free energy: 1.31 kcal/mol
Aspergillus oryzae (strain ATCC 42149 / RIB 40), pH 7, 2 °C, Urea, Fluorescence, MOPS 30 mM, NaCl 0.1 M, reversible: yes
  unfolding free energy: 1.2 kcal/mol
Aspergillus oryzae (strain ATCC 42149 / RIB 40), pH 7, 5 °C, Urea, Fluorescence, MOPS 30 mM, NaCl 0.1 M, reversible: yes
  unfolding free energy: 0.85 kcal/mol
[20]
  denaturant m value: 2.3 kcal/mol/M
  denaturant midpoint (higher = more stable): 2.6 M
[21]
  denaturant m value: 1.9 kcal/mol/M and 1.8 kcal/mol/M
  denaturant midpoint (higher = more stable): 2.6 M and 2.3 M
[22]
  denaturant m value: 1.9 kcal/mol/M
  denaturant midpoint (higher = more stable): 2.5 M
Aspergillus oryzae (strain ATCC 42149 / RIB 40), pH 7, 25 °C, Urea, Fluorescence, MOPS 30 mM, reversible: yes
  unfolding free energy: 5.5 kcal/mol
[23]
  unfolding enthalpy (van 't Hoff): 115 kcal/mol and 112 kcal/mol and 104 kcal/mol
  unfolding free energy: 8.8 kcal/mol and 8 kcal/mol
[24]
  Tm: 61.7 °C
  unfolding enthalpy (van 't Hoff): 112 kcal/mol
[25]
  Tm: 52.5 °C
  unfolding enthalpy (van 't Hoff): 97.7 kcal/mol
[26]
  Tm: 53.3 °C
  heat capacity change of unfolding: 1.6 kcal/mol/K
  unfolding enthalpy (calorimetric): 84.7 kcal/mol
Aspergillus oryzae (strain ATCC 42149 / RIB 40), pH 7, Thermal, DSC, Potassium phosphate 0.1 M
  Tm: 44.4 °C
[27]
  Tm: 65.6 °C
  unfolding enthalpy (calorimetric): 110 kcal/mol
[28]
  Tm: 12.4 °C
  heat capacity change of unfolding: 1.59 kcal/mol/K
  unfolding enthalpy (van 't Hoff): 39.9 kcal/mol
[29]
  Tm: 48.3 °C
  unfolding enthalpy (van 't Hoff): 96 kcal/mol
[30]
  denaturant m value: 1.45 kcal/mol/M
  denaturant midpoint (higher = more stable): 7.59 M
  unfolding free energy: 10.9 kcal/mol and 3.97 kcal/mol
[31]
  Tm: 62.8 °C
  unfolding enthalpy (van 't Hoff): 66 kcal/mol
[32]
  Tm: 61.4 °C
  unfolding enthalpy (van 't Hoff): 122 kcal/mol
[33]
  Tm: 61.1 °C
  unfolding enthalpy (van 't Hoff): 105 kcal/mol
Aspergillus oryzae (strain ATCC 42149 / RIB 40), pH 8, 15 °C, Urea, CD, Tris-HCl 0.1 M, NaCl 2.5 M
  unfolding free energy: 2.61 kcal/mol
[34]
  denaturant m value: 1.99 kcal/mol/M
  denaturant midpoint (higher = more stable): 3.1 M
Aspergillus oryzae (strain ATCC 42149 / RIB 40), pH 8, Thermal, CD, Sodium phosphate 50 mM, NaCl 25 mM, reversible: Yes
  Tm: 65.6 °C
Aspergillus oryzae (strain ATCC 42149 / RIB 40), pH 8.4, 23 °C, GdnHCl, Fluorescence, Tris-HCl 0.1 M
  denaturant midpoint (higher = more stable): 2.25 M
Aspergillus oryzae (strain ATCC 42149 / RIB 40), pH 8.4, 23 °C, GdnSCN, Fluorescence, Tris-HCl 0.1 M
  denaturant midpoint (higher = more stable): 0.75 M
